Data as given in FireProtDB (doi:10.1110/ps.8.7.1500).

Conditions: Aspergillus oryzae (strain ATCC 42149 / RIB 40), Thermal, DSC, whole UniProt chain shown

B1: Guanyl-specific ribonuclease T1 wild type, P00651 (protein)
chain: MMYSKLLTLTTLLLPTALALPSLVERACDYTCGSNCYSSSDVSTAQAAGYQLHEDGETVGSNSYPHKYNNYEGFDFSVSSPYYEWPILSSGDVYSGGSPGADRVVFNENNQLAGVITHTGASGNNFVECT
pH 2.8, 17.1 °C, glycine 10 mM
  unfolding free energy: 5.6 kcal/mol
pH 2.8, 21.1 °C, glycine 10 mM
  unfolding free energy: 4.9 kcal/mol
pH 2.8, 24.9 °C, glycine 10 mM
  unfolding free energy: 4.3 kcal/mol
pH 2.8, 25 °C, glycine 10 mM
  unfolding free energy: 4.3 kcal/mol
pH 2.8, 27.8 °C, glycine 10 mM
  unfolding free energy: 3.7 kcal/mol
pH 3, 25 °C, glycine 10 mM
  unfolding free energy: 5.2 kcal/mol
pH 3, glycine 10 mM
  Tm: 49.1 °C
  unfolding enthalpy (calorimetric): 82.7 kcal/mol
pH 3.6, 25 °C, acetate 10 mM
  unfolding free energy: 6.7 kcal/mol
pH 4, 25 °C, acetate 10 mM
  unfolding free energy: 7.2 kcal/mol
pH 5, 25 °C, acetate 10 mM
  unfolding free energy: 8.1 kcal/mol
pH 5, acetate 10 mM
  Tm: 58.6 °C
  unfolding enthalpy (calorimetric): 99.1 kcal/mol
pH 6, 25 °C, MOPS or HEPES 10 mM
  unfolding free energy: 8.5 kcal/mol
pH 6, MOPS or HEPES 10 mM
  Tm: 60.3 °C
  unfolding enthalpy (calorimetric): 101 kcal/mol
pH 7, MOPS or HEPES 10 mM
  Tm: 61.8 °C
  unfolding enthalpy (calorimetric): 102 kcal/mol
